Here are results for ten molecules from publication PMC11790492 (Nature Microbiology, 2024).

For data set [1], the target named is KorB (plasmid RK2, expressed in Escherichia coli) (UniProt P07674). The experiment in a line: BLI. The note with it: BLI and C-trap buffers not given in the material, crystals 10 mM Tris-HCl, 150 mM NaCl pH 8.0 then 1.95 M ammonium sulfate, 0.1 M NaOAc pH 4.6, Eσ70 binding ….
The target of data set [2] is T1, KorB (Escherichia coli, UniProt P07674). The experiment in a line: ITC (weak, affinity could not be fitted). Further details: C-terminally His-tagged KorB (WT). The format is binding.
Another data set addresses T2, Noc (Bacillus subtilis, UniProt P37524).
T2 sequence (P37524 1-283): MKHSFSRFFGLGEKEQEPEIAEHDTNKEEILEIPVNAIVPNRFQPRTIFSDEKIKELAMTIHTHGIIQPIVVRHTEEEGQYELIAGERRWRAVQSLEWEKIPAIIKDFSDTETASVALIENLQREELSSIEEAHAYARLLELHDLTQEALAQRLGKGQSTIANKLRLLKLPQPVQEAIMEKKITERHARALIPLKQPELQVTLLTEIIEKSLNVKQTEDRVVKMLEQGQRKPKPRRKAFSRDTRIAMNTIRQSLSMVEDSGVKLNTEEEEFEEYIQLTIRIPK
Nature of the data set: CTP hydrolysis rate by phosphate release assay (EnzChek), […] CTP. The class given is biochemical.

A further data set deals with T3, ParB (Caulobacter vibrioides, UniProt P0CAV8).
T3 sequence (P0CAV8 1-304): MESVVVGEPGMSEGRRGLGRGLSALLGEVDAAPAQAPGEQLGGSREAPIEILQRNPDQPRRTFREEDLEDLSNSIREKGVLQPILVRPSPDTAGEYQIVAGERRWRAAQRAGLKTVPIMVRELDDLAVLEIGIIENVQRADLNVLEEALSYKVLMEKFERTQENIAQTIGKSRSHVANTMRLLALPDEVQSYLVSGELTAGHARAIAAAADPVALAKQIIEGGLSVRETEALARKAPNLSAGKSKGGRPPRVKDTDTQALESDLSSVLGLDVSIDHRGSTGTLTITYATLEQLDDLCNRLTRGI
The description is as above. The class given is biochemical.

In data set [3] the target is T1, KorB. The experiment in a line: ITC; also OB DNA-stimulated CTPase assay. The format is binding. Further details: C-terminally His-tagged KorB (WT). For orientation: In ITC the heat of successive injections is recorded.
In data set [4] the target is T1, KorB. The experiment in a line: ITC; […] Å co-crystal structure (ligand modelled as CTP, sulfur position not assignable). The format is binding. Further details: ITC: C-terminally His-tagged KorB; crystal: KorB∆N30∆CTD (lacks the 30 N-terminal amino acids, the linker and the CTD).
Data set [5] deals with KorB (wild type), C-terminally His-tagged (plasmid RK2 (Escherichia coli)) (UniProt P07674).
The test system of data set [6] is AF647-KorA (Y84A) (plasmid RK2). Nature of the data set: optical tweezers residence time. The note with it: unlabelled KorB, 2 mM CTP; BLI and C-trap buffers not given in the material; crystals 10 mM Tris-HCl, 150 mM NaCl pH 8.0 then 1.95 M ammonium sulfate, 0.1 M NaOAc pH 4.6; Eσ70 binding ….
Another data set concerns AF647-KorA (plasmid RK2). Nature of the data set: optical tweezers residence time. Conditions: BLI and C-trap buffers not given in the material, crystals 10 mM Tris-HCl, 150 mM NaCl pH 8.0 then 1.95 M ammonium sulfate, 0.1 M NaOAc pH 4.6, Eσ70 binding ….
Data set [7] deals with T4, KorB (wild type), C-terminally His-tagged (plasmid RK2 (Escherichia coli), UniProt P07674 1-358).
T4 sequence (looked up): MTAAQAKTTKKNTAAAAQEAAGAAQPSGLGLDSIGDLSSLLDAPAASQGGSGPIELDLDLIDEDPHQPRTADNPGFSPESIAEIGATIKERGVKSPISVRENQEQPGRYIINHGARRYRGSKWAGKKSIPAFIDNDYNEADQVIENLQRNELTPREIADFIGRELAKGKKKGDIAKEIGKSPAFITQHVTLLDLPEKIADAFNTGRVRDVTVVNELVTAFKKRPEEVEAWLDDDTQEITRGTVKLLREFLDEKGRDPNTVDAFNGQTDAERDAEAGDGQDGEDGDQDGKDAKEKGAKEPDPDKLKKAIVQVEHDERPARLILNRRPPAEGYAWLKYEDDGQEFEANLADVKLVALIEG
The experiment in a line: cell-based or functional assay.

Data set [8] has as its target T5, KorB (wild type), C-terminally His-tagged (plasmid RK2 (Escherichia coli), UniProt P07674 1-358).
T5 chain: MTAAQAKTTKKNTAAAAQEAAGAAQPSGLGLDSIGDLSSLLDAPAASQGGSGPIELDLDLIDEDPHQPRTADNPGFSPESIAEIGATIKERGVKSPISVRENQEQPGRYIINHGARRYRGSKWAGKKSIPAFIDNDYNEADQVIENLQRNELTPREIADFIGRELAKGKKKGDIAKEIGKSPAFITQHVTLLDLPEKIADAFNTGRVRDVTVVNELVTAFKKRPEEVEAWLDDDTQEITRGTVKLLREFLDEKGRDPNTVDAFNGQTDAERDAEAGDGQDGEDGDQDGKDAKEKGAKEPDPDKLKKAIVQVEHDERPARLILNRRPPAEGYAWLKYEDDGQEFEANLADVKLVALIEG
The experiment in a line: ITC.

Data set [9] deals with the molecule itself. Nature of the data set: crystal structure; KorBΔN30ΔCTD–KorA complex with 14 bp OA DNA duplex, no CTPγS added; 2.7 Å; two KorA, two KorB subunits and one DNA duplex in the asymmetric unit.
The target in the next data set is E. coli RNAP core;σ70 (Escherichia coli;Escherichia coli, UniProt P0A7Z4;P0A8V2;P0A8T7;P0A800;P00579 1-329;1-1342;1-1407;2-91;1-613, |). Nature of the data set: native MS; no KorA/KorB; BLI and C-trap buffers not given in the material; crystals 10 mM Tris-HCl, 150 mM NaCl pH 8.0 then 1.95 M ammonium sulfate, 0.1 M NaOAc pH 4.6; Eσ70 binding and. Conditions: protein: recombinant;recombinant; tags: His10-PPX;His-SUMO, cleaved; chain copies: 2;1;1;1;1; blunt.

Data set [10] deals with the molecule itself. Nature of the data set: cross-linking; BMOE (1 mM) cysteine cross-linking of 8 µM KorB variant dimer ± 1 mM CTP or CTPγS ± 24 bp OB or scrambled DNA; 10 mM Tris–HCl pH 7.4, 100 mM NaCl, 1 mM MgCl2; room temperature; SDS–PAGE, band quantification.
The target of a further data set is KorBΔN30ΔCTD;KorA (plasmid RK2;plasmid RK2, UniProt P07674;P03052 31-252;1-101, |). Nature of the data set: X-ray crystallography; no CTPγS added; sulfates; BLI and C-trap buffers not given in the material; crystals 10 mM Tris-HCl, 150 mM NaCl pH 8.0 then 1.95 M ammonium sulfate, 0.1 M NaOAc pH 4.6; Eσ70 binding and. Conditions: protein: recombinant;recombinant; tags: His-tagged;C-terminal His6 (pET21b); chain copies: 2;2; blunt, self-complementary, 2 copies.

What is called Kd is the constant that tells how readily two partners part at equilibrium.

With 40-bp OB DNA, the Kd was found to be 60 µM in data set [1] (1 mM CTP) and 0.14 µM in [1] (no CTP).

Take `Nc1ccn([C@@H]2O[C@H](COP(=O)(O)OP(=O)(O)O)[C@@H](O)[C@H]2O)c(=O)n1` [CDP]: the “ITC (weak, affinity could not be fitted)” value at KorB [2] was “KorB binding to CDP was qualitatively much weaker than to CTP, but the data precluded the estimation”.

Regarding `Nc1ccn([C@@H]2O[C@H](COP(=O)(O)OP(=O)(O)OP(=O)(O)O)[C@@H](O)[C@H]2O)c(=O)n1` [CTP], the “CTP hydrolysis rate by phosphate release assay (EnzChek), 1 mM CTP” value is “CTP hydrolysis rates of KorB, C. crescentus ParB, and B. subtilis Noc were measured by continuous detection” on Noc; “CTP hydrolysis rates of KorB, C. crescentus ParB, and B. subtilis Noc were measured by continuous detection” on ParB. Also, at KorB [3], the Kd was determined as 4.5 ± 0.5 µM.

For the molecule `Nc1ccn([C@@H]2O[C@H](COP(=O)(O)OP(=O)(O)OP(O)(O)=S)[C@@H](O)[C@H]2O)c(=O)n1` [CTPɣS, cytidine-5′-(3-thiotriphosphate)], the Kd on KorB [4] came to 0.4 ± 0.1 µM.

Regarding “AF647–KorA: KorA with an extra C-terminal cysteine, C-terminally His-tagged, labelled with Alexa Fluor 647 (from UniProt P03052) (natural protein)”, the change of the residence time of AF647–KorA at OA on DNA (optical tweezers) with unlabelled KorB and CTP, against KorA with or without apo-KorB in data set [5] is 4.5 fold.

For the molecule “C-trap DNA 8xOB + 1xOA (22,394 bp; also ligated as 44.8 kb tandem)”, the binding was determined as 3.72 s in [6]; 3.07 s with AF647-KorA (plasmid RK2) (unlabelled KorB (F249A), 2 mM CTP); 10.1 s with AF647-KorA (plasmid RK2) (unlabelled KorB, 2 mM CTP); 2.61 s in the data set on AF647-KorA (plasmid RK2) (unlabelled KorB, no CTP).

B1: KorA (wild type), C-terminally His-tagged (natural protein, plasmid RK2 (Escherichia coli))
chain: MKKRLTESQFQEAIQGLEVGQQTIEIARGVLVDGKPQATFATSLGLTRGAVSQAVHRVWAAFEDKNLPEGYARVTAVLPEHQAYIVRKWEADAKKKQETKR
notes: KorA of plasmid RK2, wild type; cysteine-less; expected monomer mass in nMS 12,825.6 Da; also called KorA (WT); KorA–(his)6; source: E. coli Rosetta (BL21 DE3) pLysS, pET21b, purified (HisTrap, Heparin, Superdex 75); not shown: His6, C-terminal, kept
For the molecule B1, the “fold of repression of a promoter–xylE reporter (OB 1.5 kb upstream of the core promoter, OA over the −10 element) in E. coli with WT KorA and WT KorB co-expressed” value in [7] was roughly 38000 fold. This molecule gave a dissociation constant (Kd) in data set [8] of 4.2 µM. Also, the binding result in data set [9] is “binds”.

B2: PkorA 100 bp (nMS) (dsDNA)
DNA 1: GTTACGCCAAGGACGAGTTTTAGCGGCTAAAGGTGTTGACGTGCGAGAAATGTTTAGCTAAACTTCTCTCATGTGCTGGCGGCTGTCACCGCTATGTTCA
DNA 2: TGAACATAGCGGTGACAGCCGCCAGCACATGAGAGAAGTTTAGCTAAACATTTCTCGCACGTCAACACCTTTAGCCGCTAAAACTCGTCCTTGGCGTAAC
In the case of B2, the binding result in the data set with E. coli RNAP core;σ70 is “binds”.

B3: KorB (K351C), C-terminally His-tagged (natural protein)
chain: MTAAQAKTTKKNTAAAAQEAAGAAQPSGLGLDSIGDLSSLLDAPAASQGGSGPIELDLDLIDEDPHQPRTADNPGFSPESIAEIGATIKERGVKSPISVRENQEQPGRYIINHGARRYRGSKWAGKKSIPAFIDNDYNEADQVIENLQRNELTPREIADFIGRELAKGKKKGDIAKEIGKSPAFITQHVTLLDLPEKIADAFNTGRVRDVTVVNELVTAFKKRPEEVEAWLDDDTQEITRGTVKLLREFLDEKGRDPNTVDAFNGQTDAERDAEAGDGQDGEDGDQDGKDAKEKGAKEPDPDKLKKAIVQVEHDERPARLILNRRPPAEGYAWLKYEDDGQEFEANLADVCLVALIEG
As for B3, the binding result in data set [10] is “binds”.

B4: 14 bp OA (dsDNA)
DNA 1: TGTTTAGCTAAACA
DNA 2: TGTTTAGCTAAACA
Consider B4, for which, in the data set with KorBΔN30ΔCTD;KorA, the binding result is “binds”.
